# Data: patent US11872270B2, “A*03 restricted peptides for use in immunotherapy against cancers and related methods” (Immatics Biotechnologies GmbH, priority 2018, dated 2024)
# Target: HLA-A*03:01 (Homo sapiens, UniProt P04439)
# Assay: MHC binding assay (UV-ligand exchange, β2m ELISA)
# Conditions: binding to HLA-A*03:01, UV-ligand exchange, β2m ELISA
# Description: Candidate peptides for T cell based therapies according to the present invention were further tested for their MHC binding capacity (affinity). The individual peptide-MHC complexes were produced by UV-ligand exchange, where a UV-sensitive peptide is cleaved upon UV-irradiation and exchanged with the peptide of interest as analyzed. Only peptide candidates that can effectively bind and stabilize the peptide-receptive MHC molecules prevent dissociation of the MHC complexes. To determine the yield of the exchange reaction, an ELISA was performed based on the detection of the light chain (β2m) of stabilized MHC complexes. The assay was performed as generally described in Rodenko et al. (Rodenko et al., 2006) 96 well MAXISorp plates (NUNC) were coated over night with 2 ug/ml streptavidin in PBS at room temperature, washed 4× and blocked for 1 h at 37° C. in 2% BSA containing blocking buffer. Refolded HLA-A*02:01/MLA-001 monomers served as standards, covering the range of 15-500 ng/ml. Peptide-MHC monomers of the UV-exchange reaction were diluted 100-fold in blocking buffer. Samples were incubated for 1 h at 37° C., washed four times, incubated with 2 ug/ml HRP conjugated anti-β2m for 1 h at 37° C., washed again and detected with TMB solution that is stopped with […]. Absorption was measured at 450 nm. Candidate peptides that show a high exchange yield (preferably higher than 50%, most preferred higher than 75%) are generally preferred for a generation and production of antibodies or fragments thereof, and/or T cell receptors or fragments thereof, as they show sufficient avidity to the MHC molecules and prevent dissociation of the MHC complexes.
row,Substance,"Peptide exchange (MHC class I binding score, peptide exchange yield)"
1,1 (RVYPHKTLY; listed as Homo sapiens) [compound 1],+++ (>50 = +++)
2,2 (KVMPKQTWK; listed as Homo sapiens) [compound 2],+++ (>50 = +++)
3,3 (LLYGNGPGYVLK; listed as Homo sapiens) [compound 3],++++ (>75% = ++++)
4,6 (SIFGLAPGK; listed as Homo sapiens) [compound 6],++++ (>75% = ++++)
5,7 (RLVELAGQSLLK; listed as Homo sapiens) [compound 7],++++ (>75% = ++++)
6,9 (HVLYPVPLESY; listed as Homo sapiens) [compound 9],+++ (>50 = +++)
7,10 (KARDLRTPK; listed as Homo sapiens) [compound 10],+++ (>50 = +++)
8,11 (PLPRPGAVLK; listed as Homo sapiens) [compound 11],++ (>20% = ++)
9,12 (KVLTRNIEY; listed as Homo sapiens) [compound 12],+++ (>50 = +++)
10,13 (AVAFFVLPSK; listed as Homo sapiens) [compound 13],++++ (>75% = ++++)
11,14 (VAFFVLPSK; listed as Homo sapiens) [compound 14],++ (>20% = ++)
12,15 (RLYAPVVNISRL; listed as Homo sapiens) [compound 15],+++ (>50 = +++)
13,16 (KVFAEHKISY; listed as Homo sapiens) [compound 16],+++ (>50 = +++)
14,17 (GGLSSQGVYY; listed as Homo sapiens) [compound 17],++ (>20% = ++)
15,18 (RLYYSFKNITK; listed as Homo sapiens) [compound 18],++++ (>75% = ++++)
16,19 (ALAAKLEVK; listed as Homo sapiens) [compound 19],++++ (>75% = ++++)
17,20 (LLPTVLIKK; listed as Homo sapiens) [compound 20],+++ (>50 = +++)
18,21 (SSLAELIAK; listed as Homo sapiens) [compound 21],++ (>20% = ++)
19,22 (EGLFLLGCVK; listed as Homo sapiens) [compound 22],+++ (>50 = +++)
20,23 (RLSPGPRAY; listed as Homo sapiens) [compound 23],+++ (>50 = +++)

row,Substance,"Peptide exchange (MHC class I binding score, peptide exchange yield)"
1,24 (KLETGVVKK; listed as Homo sapiens) [compound 24],++++ (>75% = ++++)
2,25 (KTWAHCMSY; listed as Homo sapiens) [compound 25],++++ (>75% = ++++)
3,26 (QLGYQAAVLK; listed as Homo sapiens) [compound 26],+++ (>50 = +++)
4,27 (SGSTLECILYK; listed as Homo sapiens) [compound 27],++++ (>75% = ++++)
5,28 (STLECILYK; listed as Homo sapiens) [compound 28],++++ (>75% = ++++)
6,30 (ILDSSLLK; listed as Homo sapiens) [compound 30],++ (>20% = ++)
7,31 (HAFFPKTHR; listed as Homo sapiens) [compound 31],++++ (>75% = ++++)
8,32 (LLDAEPPILY; listed as Homo sapiens) [compound 32],+ (>10% = +)
9,34 (AIGTPLIGK; listed as Homo sapiens) [compound 34],+++ (>50 = +++)
10,35 (VLLLLSLLH; listed as Homo sapiens) [compound 35],++ (>20% = ++)
11,36 (QIRAELMKK; listed as Homo sapiens) [compound 36],++++ (>75% = ++++)
12,37 (EVILTTKTPK; listed as Homo sapiens) [compound 37],++ (>20% = ++)
13,38 (SLFPYYNNLY; listed as Homo sapiens) [compound 38],+ (>10% = +)
14,39 (KTQFPQLK; listed as Homo sapiens) [compound 39],++ (>20% = ++)
15,40 (ALNDRFAGY; listed as Homo sapiens) [compound 40],+++ (>50 = +++)
16,41 (RLGAARGQLR; listed as Homo sapiens) [compound 41],++ (>20% = ++)
17,42 (RVCMTVDSLVNK; listed as Homo sapiens) [compound 42],++++ (>75% = ++++)
18,43 (TVYDSIWCNMK; listed as Homo sapiens) [compound 43],++++ (>75% = ++++)
19,44 (HAFPPGPNY; listed as Homo sapiens) [compound 44],+ (>10% = +)
20,47 (ALFGNALVFY; listed as Homo sapiens) [compound 47],++++ (>75% = ++++)

row,Substance,"Peptide exchange (MHC class I binding score, peptide exchange yield)"
1,48 (KGWNGQIFK; listed as Homo sapiens) [compound 48],+++ (>50 = +++)
2,49 (ITAPLMPLGK; listed as Homo sapiens) [compound 49],++++ (>75% = ++++)
3,50 (HSAGIFSMY; listed as Homo sapiens) [compound 50],++ (>20% = ++)
4,51 (VTADGALAMEK; listed as Homo sapiens) [compound 51],+++ (>50 = +++)
5,53 (KQALSLVRK; listed as Homo sapiens) [compound 53],+++ (>50 = +++)
6,54 (GVTITKTLK; listed as Homo sapiens) [compound 54],+++ (>50 = +++)
7,55 (RLSAESKDLLK; listed as Homo sapiens) [compound 55],+++ (>50 = +++)
8,56 (TTYYPSPLNK; listed as Homo sapiens) [compound 56],+++ (>50 = +++)
9,58 (VLYRPQLEK; listed as Homo sapiens) [compound 58],++++ (>75% = ++++)
10,59 (KINQYIIKK; listed as Homo sapiens) [compound 59],+++ (>50 = +++)
11,60 (VVFPFPVNKR; listed as Homo sapiens) [compound 60],+++ (>50 = +++)
12,61 (SLYDSEPRKK; listed as Homo sapiens) [compound 61],++++ (>75% = ++++)
13,62 (GIFPKIMPK; listed as Homo sapiens) [compound 62],++++ (>75% = ++++)
14,63 (SSFRPLLSK; listed as Homo sapiens) [compound 63],++++ (>75% = ++++)
15,65 (RTIEELQNK; listed as Homo sapiens) [compound 65],+++ (>50 = +++)
16,66 (RVKEIVINK; listed as Homo sapiens) [compound 66],+++ (>50 = +++)
17,67 (VVREILHAQTLK; listed as Homo sapiens) [compound 67],+++ (>50 = +++)
18,68 (KGPMAGILAY; listed as Homo sapiens) [compound 68],++ (>20% = ++)
